In publication PMC2856455 (Journal of molecular biology, 2010):

Columns and labels:
MDM2 = MDM2 (Homo sapiens, UniProt Q00987); assay: SPR-based competition binding assay, synthetic 25–109MDM2
MDMX = biological target: T1, MDMX (Homo sapiens, UniProt O15151); assay: SPR-based competition binding assay, synthetic 24–108MDMX
T1 sequence (O15151 24-108): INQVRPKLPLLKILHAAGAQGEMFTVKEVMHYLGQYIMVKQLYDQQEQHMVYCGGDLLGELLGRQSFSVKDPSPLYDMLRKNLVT

[1] = calculated binding free energy relative to PMI

## TSFAEYWNLASP [L10A-PMI]
MDM2; [1]
  ΔΔG(kcal/mol), PMI-MDM2: 3.28 kcal/mol
MDM2; comparison of binding affinities for MDM2 and MDMX
  preference between MDM2 and MDMX: higher binding affinity for MDMX than for MDM2
MDM2; mutation more deleterious to MDM2 than to MDMX
  difference in relative binding free energy, MDM2 versus MDMX: 1.0 kcal/mol
MDM2; relative to PMI
  Kd ratio, PMI-MDM2: 277
MDMX; [1]
  ΔΔG, PMI-MDMX: 2.28 kcal/mol
MDMX; relative to PMI
  Kd ratio (kcal/mol), PMI-MDMX: 50 kcal/mol
